In patent US20240207464A1 (NIHON MEDI PHYSICS, published 2024):

T1: CD20 (human, UniProt P11836 1-297)
T1 construct: whole, on cells; also called CD20 on Ramos tumor sections (CD20-positive human Burkitt lymphoma-derived cell line)
T1 sequence (looked up): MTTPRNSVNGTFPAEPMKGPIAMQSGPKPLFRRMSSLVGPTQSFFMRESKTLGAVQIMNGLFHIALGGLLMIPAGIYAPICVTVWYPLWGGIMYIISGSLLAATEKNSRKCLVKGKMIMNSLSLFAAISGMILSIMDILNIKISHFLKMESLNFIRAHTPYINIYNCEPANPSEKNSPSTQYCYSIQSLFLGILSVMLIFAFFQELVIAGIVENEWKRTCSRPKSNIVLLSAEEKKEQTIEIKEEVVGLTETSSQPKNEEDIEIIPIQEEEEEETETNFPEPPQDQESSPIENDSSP

B1: radioconjugate (Example 3): conjugate with rituximab by using 89Zr-labeled DOTAGA-DBCO (antibody, human IgG1, kappa)
heavy: not shown
light: QIVLSQSPAILSASPGEKVTMTCRASSSVSYIHWFQQKPGSSPKPWIYATSNLASGVPVRFSGSGSGTSYSLTISRVEAEDAATYYCQQWTSNPPTFGGGTKLEIKRTVAAPSVFIFPPSDEQLKSGTASVVCLLNNFYPREAKVQWKVDNALQSGNSQESVTEQDSKDSTYSLSSTLTLSKADYEKHKVYACEVTHQGLSSPVTKSFNRGEC
peptide: not shown
modifications: lysine side chain modified with R1 (crosslinker, bonded to the antibody Fc); disulfide between the two cysteines; N-terminal ethyl azide via diglycolic acid and eight PEGs, clicked to DBCO of the 89Zr-DOTAGA-DBCO complex; Fc region site-specifically modified by the peptide of SEQ ID NO: 17 through the crosslinker on its lysine; the peptide carries 89Zr-chelated DOTAGA-DBCO through a click reaction
notes: also called 89Zr complex-labeled antibody
B2: radioconjugate (Comparative Example 2): conjugate with rituximab by using 89Zr-labeled DOTA-DBCO (antibody, human IgG1, kappa)
heavy: not shown
light: B1 light
peptide: not shown
modifications: lysine side chain modified with R1 (crosslinker, bonded to the antibody Fc); disulfide between the two cysteines; N-terminal ethyl azide via diglycolic acid and eight PEGs, clicked to DBCO of the 89Zr-DOTA-DBCO complex; Fc region site-specifically modified by the peptide of SEQ ID NO: 17 through the crosslinker on its lysine; the peptide carries 89Zr-chelated DOTA-DBCO through a click reaction

Target: T1, CD20
Assay: in vitro autoradiography on frozen Ramos and CCRF-CEM tumor sections
Description: Ramos cells of a CD20-positive human Burkitt lymphoma-derived cell line purchased from ATCC (American Type Culture Collection), and CCRF-CEM cells of a CD20-negative human acute lymphoblastic leukemia/T lymphocyte-like cell line were administered subcutaneously to the flanks of female BALB/c nu/nu mice (manufactured by Charles River Laboratories Japan, Inc.) at 5×10⁶ cells to prepare tumor-bearing mice. Thereafter, Ramos tumor and CCRF-CEM tumor were excised and embedded in Tissue-Tek O.C.T. Compound (Sakura Finetek Japan Co., Ltd.) to prepare frozen sections. The radioconjugates obtained in Example 1 and Comparative Example 1 were added to 1% bovine serum albumin-containing PBS each at 1 kBq/mL, and Ramos tumor section and CCRF-CEM tumor section were immersed therein. After contacting the sections with the imaging plate, they were read with a scanner-type image analyzer (Typhoon FLA 7000 manufactured by GE Healthcare Japan) to evaluate the level of radioactivity bound to the sections.

Row | Binder | binding result
1 | B1 | binds
2 | B2 | binds
